Results published in patent US20210163545A1.

What was measured:
Fab [1] = assay: static binding capacity: Fab incubated with ligand-immobilized porous particles, eluted at pH 2.5, absorbance
Fab [2] = assay: static binding capacity for Fab after 0.1 M NaOH for 24 h, relative to SBC of the same particles without alkali treatment

SBC without alkali treatment (mg/mL-particles) (Fab [1]) | SBC retention ratio (%) after alkali treatment (Fab [2]) | Binder
60 | 39% | Recombinant type immunoglobulin κ chain binding protein KBP0 (protein) KETPETPEEPKEEVTIKVNLIFADGKTQTATFKGTFEEATAEAYRYADLLAKVNGEYTADLEDGGYTINIKFAGKKETPETPEEPKEEVTIKVNLIFADGKTQTATFKGTFEEATAEAYRYADLLAKVNGEYTADLEDGGYTINIKFAGKKETPETPEEPKEEVTIKVNLIFADGKTQTATFKGTFEEATAEAYRYADLLAKVNGEYTADLEDGGYTINIKFAGKKETPETPEEPKEEVTIKVNLIFADGKTQTATFKGTFEEATAEAYRYADLLAKVNGEYTADLEDGGYTINIKFAGK
63 | 51% | Recombinant immunoglobulin κ chain binding protein KBP5 (protein) KETPETPEEPKEEVTIKVNLIFADGKTQTATFKGTFEEATAEAYRYADLLAKVQGEYTADLEDGGYTINIKFAGKKETPETPEEPKEEVTIKVNLIFADGKTQTATFKGTFEEATAEAYRYADLLAKVQGEYTADLEDGGYTINIKFAGKKETPETPEEPKEEVTIKVNLIFADGKTQTATFKGTFEEATAEAYRYADLLAKVQGEYTADLEDGGYTINIKFAGKKETPETPEEPKEEVTIKVNLIFADGKTQTATFKGTFEEATAEAYRYADLLAKVQGEYTADLEDGGYTINIKFAGK
56 | 46% | Recombinant immunoglobulin κ chain binding protein KBP1 (protein) KETPETPEEPKEEVTIRVNLIFADGKTQTATFKGTFEEATAEAYRYADLLAKVNGEYTADLEDGGYTINIKFAGKKETPETPEEPKEEVTIRVNLIFADGKTQTATFKGTFEEATAEAYRYADLLAKVNGEYTADLEDGGYTINIKFAGKKETPETPEEPKEEVTIRVNLIFADGKTQTATFKGTFEEATAEAYRYADLLAKVNGEYTADLEDGGYTINIKFAGKKETPETPEEPKEEVTIRVNLIFADGKTQTATFKGTFEEATAEAYRYADLLAKVNGEYTADLEDGGYTINIKFAGK
59 | 46% | Recombinant immunoglobulin κ chain binding protein KBP2 (protein) KETPETPEEPKEEVTIKVNLIFADGRTQTATFKGTFEEATAEAYRYADLLAKVNGEYTADLEDGGYTINIKFAGKKETPETPEEPKEEVTIKVNLIFADGRTQTATFKGTFEEATAEAYRYADLLAKVNGEYTADLEDGGYTINIKFAGKKETPETPEEPKEEVTIKVNLIFADGRTQTATFKGTFEEATAEAYRYADLLAKVNGEYTADLEDGGYTINIKFAGKKETPETPEEPKEEVTIKVNLIFADGRTQTATFKGTFEEATAEAYRYADLLAKVNGEYTADLEDGGYTINIKFAGK
47 | 49% | Recombinant immunoglobulin κ chain binding protein KBP4 (protein) KETPETPEEPKEEVTIKVNLIFADGKTQTATFKGTFEEATAEAFRYADLLAKVNGEYTADLEDGGYTINIKFAGKKETPETPEEPKEEVTIKVNLIFADGKTQTATFKGTFEEATAEAFRYADLLAKVNGEYTADLEDGGYTINIKFAGKKETPETPEEPKEEVTIKVNLIFADGKTQTATFKGTFEEATAEAFRYADLLAKVNGEYTADLEDGGYTINIKFAGKKETPETPEEPKEEVTIKVNLIFADGKTQTATFKGTFEEATAEAFRYADLLAKVNGEYTADLEDGGYTINIKFAGK
58 | 48% | Recombinant immunoglobulin κ chain binding protein KBP3 (protein) KETPETPEEPKEEVTIKVNLIFADGKTQTATFKGRFEEATAEAYRYADLLAKVNGEYTADLEDGGYTINIKFAGKKETPETPEEPKEEVTIKVNLIFADGKTQTATFKGRFEEATAEAYRYADLLAKVNGEYTADLEDGGYTINIKFAGKKETPETPEEPKEEVTIKVNLIFADGKTQTATFKGRFEEATAEAYRYADLLAKVNGEYTADLEDGGYTINIKFAGKKETPETPEEPKEEVTIKVNLIFADGKTQTATFKGRFEEATAEAYRYADLLAKVNGEYTADLEDGGYTINIKFAGK
60 | 42% | Recombinant immunoglobulin κ chain binding protein KBP9 (protein, part only; not given: further domain copies and linkers, part only) chain, part: KETETEEPKEEVTIKVNLIFADGKTQTATFKGTFEEATAEAYRYADLLAKVNGEYTADLEDGGYTINIKFAGK
60 | 45% | Recombinant immunoglobulin κ chain binding protein KBP8 (protein, part only; not given: further domain copies and linkers, part only) chain, part: KETETPEEPKEEVTIKVNLIFADGKTQTATFKGTFEEATAEAYRYADLLAKVNGEYTADLEDGGYTINIKFAGK
61 | 58% | Recombinant immunoglobulin κ chain binding protein KBP6 (protein, part only; not given: further domain copies and linkers, part only) chain, part: KETPETPEEPKEEVTIKVNLIFADGKTQTATFKGTFEEATAEAYRYADLLAKVNAGEYTADLEDGGYTINIKFAGK
64 | 73% | Recombinant immunoglobulin κ chain binding protein KBP7 (protein, part only; not given: further domain copies and linkers, part only) chain, part: KETPETPEEPKEEVTIKVNLIFADGKTQTATFKGTFEEATAEAYRYADLLAKVNYGEYTADLEDGGYTINIKFAGK
